Test results: paper PMC5401885, “Isoprenoid Pyrophosphate-Dependent Transcriptional Regulation of Carotenogenesis in Corynebacterium glutamicum” (Frontiers in Microbiology, 2017)

Target: T1, CrtR (His-tagged) (Corynebacterium glutamicum ATCC 13032) (UniProt Q8NSP1)
T1 sequence: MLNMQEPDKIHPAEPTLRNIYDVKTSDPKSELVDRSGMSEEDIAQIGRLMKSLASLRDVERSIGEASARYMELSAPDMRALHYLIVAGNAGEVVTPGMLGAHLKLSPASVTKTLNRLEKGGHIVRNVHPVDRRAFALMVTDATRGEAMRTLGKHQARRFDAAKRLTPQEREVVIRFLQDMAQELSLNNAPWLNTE
Assay: EMSA
Settings: 50 mM Tris-HCl pH 7.5, 10% glycerol, 50 mM KCl, 10 mM MgCl2, 0.5 mM EDTA, 20 uL, 90 ng DNA, 30 min at room temperature; 6% DNA retardation gel

Row | Compound | binding
1 | CATAAAAATAATGTGCCTACAAGAAATTTATAGTATCCCATGAGTTAATATTTTTAAAAATAAACTTTATCTGACTTTGTAGAAAAAGGTGATTACTATGCTGAATATGCAGGAACCAGATAAAATCCATCCGGCAGAACCTACACTTCGTAATATTTATGACGTTAAAACTAGTGATCCCAAAAGTGAATTAGTTGATCGTTCTGGCATGTCGGAAGAAGACATTGCGCAAATTGGGCGGCTAATGAAATCGTTGGCCAGTCTTCGCGATGTGGAACGTAGTATTGGTG (double strand) [fragment D] | binds
2 | AAAAATATTAACTCATGGGATACTATAAATTTCTTGTAGGCACATTATTTTTATGGACCCAAATTCACACTTTCTGTACTTCATCAAAATAAAGCGCCATATACAACGATTGGGAATTTTTGCGAGATAACTGGCCGTGTGATACTCGA (double strand) [fragment C] | binds
3 | CACCAATACTACGTTCCACATCGCGAAGACTGGCCAACGATTTCATTAGCCGCCCAATTTGCGCAATGTCTTCTTCCGACATGCCAGAACGATCAACTAATTCACTTTTGGGATCACTAGTTTTAACGTCATAAATATTACGAAGTGTAGGTTCTGCCGGATGGATTTTATCTGGTTCCTGCATATTCAGCATAGTAATCACCTTTTTCTACAAAGTCAGATAAAGTTTATTTTT (double strand) [fragment G] | no binding
4 | CACCAATACTACGTTCCACATCGCGAAGACTGGCCAACGATTTCATTAGCCGCCCAATTTGCGCAATGTCTTCTTCCGACATGCCAGAACGATCAACTAATTCACTTTTGGGATCACTAGTTTTAACGTCATAAATATTACGAAGTGTAGGTTCTGCCGGATGGATTTTATCTGGTTCCTGCATATTCAGCATAGTAATCACCTTTTTCTACAAAGTCAGATAAAGTTTATTTTTAAAAATATTAACTCATGGGATACTATAAATTTCTTGTAGGC (double strand) [fragment E] | binds
5 | CACCAATACTACGTTCCACATCGCGAAGACTGGCCAACGATTTCATTAGCCGCCCAATTTGCGCAATGTCTTCTTCCGACATGCCAGAACGATCAACTAATTCACTTTTGGGATCACTAGTTTTAACGTCATAAATATTACGAAGTGTAGGTTCTGCCGGATGGATTTTATCTGGTTCCTGCATATTCAGCATAGTAATCACCTTTTTCTACAAAGTCAGATAAAGTTTATTTTTAAAAATATTAACTCATGGG (double strand) [fragment F] | binds
6 | TCGAGTATCACACGGCCAGTTATCTCGCAAAAATTCCCAATCGTTGTATATGGCGCTTTATTTTGATGAAGTACAGAAAGTGTGAATTTGGGTCCATAAAAATAATGTGCCTACAAGCCCGGGATAGTATCCCATGAGGGCCTATTTTT (double strand) | no binding
7 | ATTCAGCATAGTAATCACCTTTTTCTACAAAGTCAGATAAAGTTTATTTTTAAAAATATTAACTCATGGGATACTATAAATTTCTTGTAGGCACATTATTTTTATGGACCCAAATTCACACTTTCTGTACTTCATCAAAATAAAGCGCCATATACAACGATTGGGAATTTTTGCGAGATAACTGGCCGTGTGATACTCGA (double strand) [fragment A (full crtE-crtR intergenic region)] | binds
8 | AACTCATGGGATACTATAAATTTCTTGTAGGCACATTATTTTTATGGACCCAAATTCACACTTTCTGTACTTCATCAAAATAAAGCGCCATATACAACGATTGGGAATTTTTGCGAGATAACTGGCCGTGTGATACTCGA (double strand) [fragment B] | no binding
9 | GTTCGCTACGTCCGAGTGATCACCTACAAGGACGTCAACATCGAAGAATTAGATAAGCCTGACATCATCATGCCTGAG (double strand) [cg2228 upstream fragment] | no binding
10 | AAAAATATTAACTCATGGGATACTATCCCGGGCTTGTAGGCACATTATTTTTATGGACCCAAATTCACACTTTCTGTACTTCATCAAAATAAAGCGCCATATACAACGATTGGGAATTTTTGCGAGATAACTGGCCGTGTGATACTCGA (double strand) [fragment H (motif 2 AAATTT to CCCGGG)] | binds
11 | AAAAATAGGCCCTCATGGGATACTATAAATTTCTTGTAGGCACATTATTTTTATGGACCCAAATTCACACTTTCTGTACTTCATCAAAATAAAGCGCCATATACAACGATTGGGAATTTTTGCGAGATAACTGGCCGTGTGATACTCGA (double strand) [fragment I (motif 1 TTAA to GGCC)] | no binding

Target: T2, CrtR (CrtRHis6, His-tagged CrtR) (Corynebacterium glutamicum, UniProt Q8NSP1)
T2 construct: gene Cgl0627; full length, 195 aa; N-terminal His-tag (pET16b, decahistidine) kept; expressed in E. coli BL21(DE3); Ni-NTA purified; cloning primers give N-terminus MLNMQE and C-terminus WLNTE
T2 sequence (Q8NSP1 1-195): T1 sequence
Assay: EMSA, loss of CrtR binding to crtE-crtR intergenic DNA
Settings: 30-fold molar excess CrtR over DNA; 15 min pre-incubation, room temperature; 50 mM Tris-HCl pH 7.5, 50 mM KCl, 10 mM MgCl2

Row | Compound | EMSA, loss of CrtR binding to crtE-crtR intergenic DNA
12 | CC(C)=CCOP(=O)(O)OP(=O)(O)O [DMAPP, dimethylallyl pyrophosphate] | FPP, GPP, IPP and DMAPP exerted similar effects on CrtR binding in vitro
13 | C=C(C)CCOP(=O)(O)OP(=O)(O)O [IPP, isopentenyl pyrophosphate] | FPP, GPP, IPP and DMAPP exerted similar effects on CrtR binding in vitro
14 | CC(C)=CCC/C(C)=C/COP(=O)(O)OP(=O)(O)O [GPP, geranyl pyrophosphate] | FPP, GPP, IPP and DMAPP exerted similar effects on CrtR binding in vitro
15 | CC(C)=CCC/C(C)=C/CC/C(C)=C/COP(=O)(O)OP(=O)(O)O [FPP, farnesyl pyrophosphate] | farnesyl pyrophosphate (FPP) and GGPP perturbed binding of His-tagged CrtR to the intergenic region

Target: T2, CrtR (CrtRHis6, His-tagged CrtR)
Assay: as above
Settings: 30-fold molar excess CrtR over DNA; 15 min pre-incubation, room temperature; 50 mM Tris-HCl pH 7.5, 50 mM KCl, 10 mM MgCl2
Remark: another data set of the same source

Row | lowest effective concentration | Compound
16 | 50 µM | CC(C)=CCC/C(C)=C/CC/C(C)=C/CC/C(C)=C/COP(=O)(O)OP(=O)(O)O [GGPP]
